Reference: the supplement of paper PMC9732359
± gives the uncertainty stated by the source.

Assay: protein stability index of a GFP-peptide fusion (yeast GPS) (PSI 1-4); higher = more stable; sorted into four equal gates, so the index is relative within each strain
Outline: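 Peptides tiling yeast proteins in 17-residue segments were fused downstream of GFP, with Cherry expressed from the same plasmid. As a pooled library in yeast, mid-log cultures grown in leucine-free medium were sorted into four equal gates by GFP/Cherry fluorescence ratio. Gate plasmids were PCR-amplified and Illumina-sequenced, and barcodes linked reads to strains. Each peptide received a protein stability index equal to the sum of each gate's read frequency times its gate number.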

| Sequence | protein stability index (doa10∆) | protein stability index (pdr5∆) | protein stability index (san1∆) | protein stability index (ubr1∆) |
| --- | --- | --- | --- | --- |
| VFTMKELAQYMKTNVHT [RGR1] | 2.66 ± 0.1 | 2.84 ± 0.13 | 2.6 ± 0.082 | 2.69 ± 0.057 |
| SLDDNSTSLEKQINSIK [YJL041W/NSP1] | 2.78 ± 0.079 | 3.08 ± 0.065 | 2.97 ± 0.045 | 2.96 ± 0.048 |
| EIAQANSRNAIRKLVKN [RPL19A] | 2.9 ± 0.15 | 3.01 ± 0.083 | 2.86 ± 0.11 | 3.1 ± 0.098 |
| DDFMHSETREKELESID [RPB4] |  |  | 2.74 ± 0.12 | 3.2 ± 0.19 |
| LQKAVRGHVLQFEWHQN [SNF2] | 1.27 ± 0.043 | 1.34 ± 0.063 | 1.37 ± 0.16 | 1.35 ± 0.058 |
| EVVEVQEETVVEQTAEV [RPS12] | 3.15 ± 0.1 | 3.36 ± 0.11 | 2.97 ± 0.076 | 3.24 ± 0.097 |
| ISSLIGGFEYFLQPLLL [NUT1] | 1.21 ± 0.058 | 1.27 ± 0.08 | 1.33 ± 0.16 | 1.38 ± 0.19 |
| LKKIASIPNLFPTDLEI [SWI1] | 2.59 ± 0.051 | 2.69 ± 0.044 | 2.55 ± 0.053 | 2.64 ± 0.036 |
| RGNKVNKQIEILTDLVN [ITC1] | 2.83 ± 0.11 | 2.75 ± 0.098 | 2.71 ± 0.11 | 2.97 ± 0.13 |
| MSLVVQEQGSFQHILRL [RPS18A] | 2.95 ± 0.14 | 2.83 ± 0.12 | 2.65 ± 0.1 | 2.92 ± 0.1 |
| FDNFLTEEELQAAVPDN [BRN1] | 2.93 ± 0.071 | 2.71 ± 0.071 | 2.54 ± 0.068 | 2.65 ± 0.051 |
| RVHRLLRRGNYAQRIGS [HTA1] | 2.65 ± 0.23 | 2.77 ± 0.19 | 2.64 ± 0.094 | 2.74 ± 0.24 |
| SPLYMDTETFDTVNSAL [YML103C/NUP188] | 3.11 ± 0.14 | 3.27 ± 0.14 | 3.18 ± 0.074 | 3.21 ± 0.058 |
| VRLGEEDMIRSVFDATS [RPN1] |  |  | 3.12 ± 0.23 |  |
| YALFLKALRRKIYINLA [SSN2] | 1.62 ± 0.092 | 1.31 ± 0.067 | 1.35 ± 0.12 | 1.47 ± 0.085 |
| ELNYFVGCKNLERLTLV [GRR1] | 2.92 ± 0.11 | 2.83 ± 0.093 | 2.19 ± 0.094 | 3.05 ± 0.081 |
| YCDSMGRPQRKMMSFQA [RPB5] | 3.5 ± 0.12 | 3.19 ± 0.13 | 3.48 ± 0.058 | 3.3 ± 0.09 |
| VSNSISRLGEENLPGLS [SNU114] | 1.14 ± 0.12 | 1.27 ± 0.15 | 1.07 ± 0.15 | 1.07 ± 0.12 |
| TTTNTDQNNATMGEETA [SNF12] | 3.3 ± 0.076 | 3.37 ± 0.11 | 3.4 ± 0.076 | 3.21 ± 0.1 |
| LVQQIQKETQKVTKIWS [PRP28] | 2.39 ± 0.06 | 2.58 ± 0.064 | 2.52 ± 0.058 | 2.26 ± 0.047 |
| REILCYSKDAKEIYYTP [FAS2] | 2.679 ± 0.024 | 2.821 ± 0.025 | 2.701 ± 0.025 | 2.71 ± 0.019 |
| QITKFPKYRDNLATWYH [SSN3] | 2.77 ± 0.065 | 2.88 ± 0.077 | 2.7 ± 0.066 | 2.37 ± 0.041 |
| HPPFIKYACLAIRKNGQ [SIN4] | 1.45 ± 0.042 | 1.51 ± 0.039 | 1.68 ± 0.065 | 1.42 ± 0.031 |

| Sequence | protein stability index (doa10∆) | protein stability index (pdr5∆) | protein stability index (san1∆) | protein stability index (ubr1∆) |
| --- | --- | --- | --- | --- |
| KRFMNTSQNPQRDAEIS [BRR2] | 3.04 ± 0.076 | 3.03 ± 0.085 | 3.12 ± 0.1 | 2.95 ± 0.059 |
| LKFFLVDENETVLESLG [LIN1] | 3.26 ± 0.27 | 2.94 ± 0.092 | 2.9 ± 0.18 | 3.04 ± 0.15 |
| SYLSNSLDTSASTINGA [YML103C/NUP188] | 2.31 ± 0.058 | 1.78 ± 0.063 | 1.76 ± 0.065 | 1.84 ± 0.06 |
| RYNAKAIGSGSEGAQAE [PUP2] | 3.24 ± 0.093 | 3.14 ± 0.093 | 3.36 ± 0.062 | 2.98 ± 0.075 |
| EGVEYLREYLNLPEHIV [RPS10A] | 3.31 ± 0.081 | 3.32 ± 0.078 | 3.2 ± 0.072 | 3 ± 0.087 |
| GRLEIFKIHTAKVKKTG [RPT4] | 2.13 ± 0.11 | 2.89 ± 0.12 | 2.33 ± 0.19 | 2.51 ± 0.097 |
| LSSMRFKPSQEPEFHAL [RRI1] | 2.58 ± 0.053 | 2.75 ± 0.05 | 2.75 ± 0.075 | 2.42 ± 0.04 |
| MEDVKIQKEEEPENNTV [SWI3] | 3.31 ± 0.11 | 3.35 ± 0.073 | 3.41 ± 0.058 | 3.41 ± 0.057 |
| SLLGGFDENIARDIISH [PCI8] | 2.83 ± 0.058 | 2.83 ± 0.048 | 2.71 ± 0.044 | 2.82 ± 0.046 |
| TANTGTIGKRRTTTNTT [TAF14] | 3.18 ± 0.06 | 3.29 ± 0.046 | 3.21 ± 0.045 | 3.19 ± 0.062 |
| DMDPLAVSAASVVSMSN [SIR2] | 1.67 ± 0.065 | 2.31 ± 0.12 | 1.71 ± 0.18 | 2.19 ± 0.072 |
| RQPSLHRLSILSHYAKI [RPO31] | 1.74 ± 0.077 | 2.1 ± 0.071 | 1.36 ± 0.12 | 2.13 ± 0.063 |
| LKYSKRRSLKKQGRIKN [CSN12] | 3.01 ± 0.064 | 3.27 ± 0.069 | 3.21 ± 0.098 | 3.25 ± 0.036 |
| VEYLTRYVAGVQQRYTQ [PRE6] | 1.47 ± 0.065 | 1.89 ± 0.086 | 1.65 ± 0.09 | 1.66 ± 0.1 |
| YVKAVSDKAQLNVVMKN [SMC4] | 2.1 ± 0.074 | 2.07 ± 0.063 | 1.6 ± 0.11 | 2.19 ± 0.053 |
| TNAKLPNVDLVTALEVL [RGR1] | 2.09 ± 0.089 | 2.28 ± 0.052 | 2.44 ± 0.07 | 2.26 ± 0.061 |
| YSLHQIRKDPNNLSNQL [CSE2] | 2.54 ± 0.076 | 2.66 ± 0.071 | 2.65 ± 0.054 | 2.77 ± 0.04 |
| NSITSGGLKSCDLDFPL [YDL116W/NUP84] | 2.78 ± 0.078 | 3.11 ± 0.068 | 3.32 ± 0.072 | 3.2 ± 0.063 |
| TPDANLISKPAKKNNFI [UBP6] | 3.12 ± 0.16 | 3.05 ± 0.1 | 3.15 ± 0.12 | 3.21 ± 0.12 |
| GDDVVNDVQGIDDVQTI [RPP1] | 3.2 ± 0.15 | 3.46 ± 0.14 | 3.42 ± 0.067 | 3.18 ± 0.081 |
| TANDRQINNVHLIPNEI [RPN4] | 2.88 ± 0.063 | 3.02 ± 0.062 | 2.92 ± 0.052 | 2.94 ± 0.055 |
| EEEKELTEEELKTRYVG [RPN11] | 3.68 ± 0.2 | 3.44 ± 0.12 | 3.4 ± 0.067 | 3.5 ± 0.14 |
